From the supplement of paper PMC10724198

Tests used:
Saccharomyces cerevisiae [1] = assay: protein stability index of tFT-peptide fusion in wild type (PSI (0-1 scale)); higher = more stable (slower turnover); details: genetic background: wild type
Experimental: (§1)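 MPS profiling in S. cerevisiae of two library types built from selected 12-aa C-degron peptides (IN1, IN2, LN1, LN3, VN2, R1-R5, W1-W3, Atg1 and Rpa12 C-termini): saturation mutagenesis libraries and C-terminal +1 capping libraries (13 aa). Each peptide is fused to the C-terminus of a sfGFP-mCherry timer, after a GGGS linker. Cells are FACS-sorted into 8 mCherry/sfGFP bins and sequenced. PSI runs from 0 (unstable) to 1 (stable), measured once in wild type and in the das1Δ or doa10Δ background.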

Saccharomyces cerevisiae [2] = assay: protein stability index of tFT-peptide fusion in deletion strain of DAS1 (PSI (0-1 scale)); higher = more stable (slower turnover)
Experimental: as §1
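Throughout, for protein stability index of tFT-peptide fusion in deletion strain of DAS1: PSI is a weighted mean of each variant's read distribution over the sorted stability bins, computed only for variants having over 10 reads in total.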
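Throughout, for protein stability index of tFT-peptide fusion in wild type: PSI derived as read-weighted mean over the 8 sorting bins, only variants exceeding 10 total reads kept, mCherry placed adjacent to the peptide and sfGFP distal.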

Sequence	protein stability index (Saccharomyces cerevisiae [1])	protein stability index (Saccharomyces cerevisiae [2])
KKHKKGQKQGIN	0.703	0.606
PDKRNHFIKLLN	0.102	0.603
PSLAASFWRVVR	0.688	0.685
PDKRNHLIKLAN	0.367	0.579
CTSMGYKFRTNN	0.148	0.689
LVVYLSCVAHIN	0.0148	0.0209
VRCAVGGWRLVG	0.126	0.716
RLIQPLPVLFLN	0.0545	0.542
KKHKHGQKQKIN	0.0725	0.637
NKHKKGQKQKIN	0.122	0.562
KKHYKGQKQKIN	0.0621	0.618
RRWRVGLWRGAS	0.389	0.684
RLIQKLPVQFLN	0.0183	0.589
PELAASFWRVVG	0.2	0.694
PSLAASFARVVG	0.622	0.684
ARWRVGLRRGAS	0.672	0.683
LKILRQKMNHQA	0.19	0.629
RLKQPLPVQFLN	0.181	0.559
LKILRQKMNHQS	0.23	0.68
KKHKKGQKQKINW	0.643	0.657
FTSCGYKFRTNN	0.207	0.676
PSLASSFWRVVG	0.165	0.696
RWIQPLPVQFLN	0.0536	0.686

Sequence	protein stability index (Saccharomyces cerevisiae [1])	protein stability index (Saccharomyces cerevisiae [2])
LVVNLSCVACIN	0.0111	0.172
KKHKKGQKQKINH	0.653	0.668
KKHKDGQKQKIN	0.0686	0.602
CPSCGYKFRTNN	0.361	0.754
PSLAESFWRVVG	0.482	0.685
TRWRVGLWRGAS	0.394	0.602
PSLAASFWYVVG	0.655	0.708
FSMRWTFRYWQN	0.106	0.614
LVVYLECVACIN	0.0187	0.0239
RLIQPHPVQFLN	0.0682	0.776
ARWRVGLWRYAS	0.0836	0.686
ARWRVYLWRGAS	0.378	0.618
KKHKKKQKQKIN	0.0427	0.593
CTSCGYKSRTNN	0.673	0.703
ARWRVGLWRGLS	0.119	0.661
VRGAVGHWRLVG	0.157	0.678
CTSCGYKFRTNW	0.695	0.705
LKILREKMNHQN	0.183	0.678
ARWRTGLWRGAS	0.474	0.679
RLIQPLPLQFLN	0.0437	0.619
YKHKKGQKQKIN	0.176	0.607
LKILRQMMNHQN	0.176	0.692
